Measurements published in paper doi:10.1101/302299.

Legend:
AtERF96 WT [1] = target: T1, AtERF96 WT (Arabidopsis thaliana, UniProt Q9LSX0 1-131); assay: EMSA
AtERF96 WT [2] = target: T1, AtERF96 WT; assay: X-ray crystallography

T1 sequence (Q9LSX0 whole entry): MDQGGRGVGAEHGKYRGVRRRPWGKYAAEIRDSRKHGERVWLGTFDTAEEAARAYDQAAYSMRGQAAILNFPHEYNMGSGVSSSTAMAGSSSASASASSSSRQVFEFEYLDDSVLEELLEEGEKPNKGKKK

B1: GCC11 probe (dsDNA)
DNA 1: TAGCCGCCAGC
DNA 2: GCTGGCGGCTA
binding result (AtERF96 WT [1]): binds

B2: GCC11 (crystal) (dsDNA)
DNA 1: TAGCCGCCAGC
DNA 2: GCTGGCGGCTA
binding result (AtERF96 WT [2]): binds
